# Assays:
# [1] = system: ZFN SBS#11004 (N2 pair) (synthetic construct); experiment: cell_activity; conditions: Cel-I assay in K562 day 3, as pair with SBS#9802; 34-47% in LP mouse liver in vivo (p174)
# [2] = system: ZFN SBS#9802 (N2 pair) (synthetic construct); experiment: cell_activity; conditions: Cel-I assay in K562 day 3, as pair with SBS#11004; 34-47% in LP mouse liver in vivo (p174)
Sequence,activity (% alleles cleaved) [1],activity (% alleles cleaved) [2]
GTACTAGGGGTATGGGGATAAACCAGAC (double strand) [hF9 intron 1 target of SBS#11004],30,
TGACACAGTACCTGGCACCATAGTTGTA (double strand) [hF9 intron 1 target of SBS#9802],,30
